Measurements published in the RNAGym collection of RNA variant scans (doi:10.1073/pnas.2313332121).
Variants at the floor of the assay were thinned out.

B1: TPR 5TU (parent)
chain: GGAUCUUCUCGAUCUAACAAAAAAGACAAAUCUGCCACAAAGCUUGAGAGCAUCUUCGGAUGCAGAGGCGGCAGCCUUCGGUGGCGCGAUAGCGCCAACGUUCUCAACUAUGACACGCAAAACGCGUGCUCCGUUGAAUGGAGUUUAUCAUG

Variants of: B1
Assay: polymerase ribozyme fitness, log enrichment relative to wild type (log ratio); higher = more active; in vitro selection for triplet polymerase activity
In short: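 A heterodimeric triplet polymerase ribozyme had each of its subunits mutagenized by PCR into a library, which was transcribed. One round of in vitro selection, done in triplicate, annealed each library with a biotinylated primer, its partner subunit and triplets, then incubated it frozen at −7 °C before gel excision of extended constructs, streptavidin-bead capture and RT-PCR. Fitness is the logarithm of genotype enrichment relative to wild-type enrichment, based on Illumina sequencing of inputs and outputs and inverse-variance-weighted replicate averages. A base-2 logarithm is used, and genotypes were kept only with ≥10 input reads and ≥1 read per output.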

Variant | polymerase ribozyme fitness (log ratio)
GGAUCUUCUCGAUCUAACAAAAAAGACAAAUCUGCCAUAAAGCUUGAGAGCAUCUUCGGAUGCAGAGGCGGCAGCCUUCGGUGGCGUGAUAGCUCCAACGUUCUCAACUAUGACACGCAAAACGCGUGCUCCGUUGAAUGGAGUUUAUCAUG [C38U C87U G94U] | -1.73
GGAUCUUCUCGAUCUAACAAAAAAGACAAAUCUGCCAUAAAGCUUGAGAGGAUCUUCGGAUGCAGAGGCGGCAGCCUUCGGCGGCGCGAUAGCGCAUACGUUCUCAACUAUGACACGCAAAACGGGUGCUCCGUUGAAUGGAGUUUAUCAUG [C38U C51G U82C C96A A97U C125G] | -3.55
GGAUCUUCUCGAUCUAACAAAAAAGACAAAUCUGCCAUAAAGCUUGAGAGCAUCUUCGGAUGCAGAGGAGGCAGCCUUCGGAGGCGCGAUAGCUCCAACGUUCUCAACUAUGACACGCAAAACGCGUGCUCCGUUGAAUGGAGUUUAUCAUG [C38U C69A U82A G94U] | -3.99
GGAUCUUCUCGAUCUAACAAAAAAGACAAAUCUGCCAUAAAGCUUGAGAGCAUCUUCGGAUGCAGAGGCGGCAGCCUUUGGUGGCGCGAUAGCGCCAACGUUCUCAACUAUGACACGCAAUACGAGUGCUCCGUUGAAUGGAUUUUAUCAUG [C38U C79U A121U C125A G143U] | -3.92
GGAUCUUCUCGAUCUAACAAAAAAGACAAAUCUGCCAUAAAGCUUGAGAGCAUCUUCGGAUGCAGAGGCGGCAGCCUUCGGUGGUGCGAUAGCGCCAACGUUCUUAACUAUGACACGCAAAAGGCGUGCUCCGUUGAAUGGAGUUUAUCAUG [C38U C85U C105U C123G] | 0.319
GGAUCUUCUCGAUCUAACAAAAAAGACAAAUCUGCCAUAAAGCUUGAGAGCAUCUUCGGAUGCAGAGGCGGCAGCCUUCGGUGGCGCGAUAGCGACAACGUUCUCAAUUAUGACACGCAAAACGCGUGCUCCGUUGAAUGGAGUUUAUCAUG [C38U C95A C108U] | -3.39
GGAUCUUCUCGAUCUAACAAAAAAGACAAAUCUGCCAUAAAGCUUGAGAGCAUCUUCGGAUGCAGAGGCGGCAGCCUUCGGUGGGGCGAUAGUGCCAACGUUCUCAACUAUGACACUCAAAACGCGUCCUCCGUUGAAUGGAGUUUAUCAUG [C38U C85G C93U G117U G128C] | ≤ -4.2
GGAUCUUCUCGAUCUAACAAAAAAGACAAAUCUGCCAUAAAGCUUGAGAGCAUCUUCGGAUGCAGAGGCGGCAGCGUUCGGUGGCGCGAUAGCGCCAACGUUCUCAACUAUGACACGCAAAACGCGUGCUCCGUUGAAUGGAGUUUAUCAUG [C38U C76G] | ≤ -4.2
GGAUCUUCUCGAUCUAACAAAAAAGACAAAUCUGCCAUAAAGCUUGAGAGCAUCUUCGGAUGCAGAGGCGGCAGCCUUCGGUGGCGCGAUAGGGCCAACGUUCUCAACUAUGACACGCAAAACGAGUGCUCCGUUGAAUGGAGUUUAUCAUG [C38U C93G C125A] | -3.39
GGAUCUUCUCGAUCUAACAAAAAAGACAAAUCUGCCAUAAAGCUUGAGAGCAUCUUCGGAUGCAGAGGCGGCAGCCUUCGGUGGAGCGAUAGCGCCAACGUUCUCAACUAUGACACCCAAAACGCGUGCUCCGUUGAAUGGAGUUUAUCAUG [C38U C85A G117C] | -0.0326
GGAUCUUCUCGAUCUAACAAAAAAGACAAAUCUGCCAUAAAGCUUGAGAGCAUCUUCGGAUGCAGAGGCGGCAGCCUUCGGUGGCGCGAUAGCGACAACGUUCUCAACUAUGACACGCAAAACGCGUGCUCCGUUGAAUGGAGUUUAUCAUG [C38U C95A] | -1.07
GGAUCUUCUCGAUCUAACAAAAAAGACAAAUCUGCCAUAAAGCUUGAGAGCAUCUUCGGAUGCAGAGGCGGCAGCCUUCGGUGGCGCGAUAGCGUCAACGUUCUCAACUAUGACACGCAAAACGCGUGCUCCGUUGAAUGGAGUUUAUCAUG [C38U C95U] | -0.731
GGAUCUUCUCGAUCUAACAAAAAAGACAAAUCUGCCAUAAAGCUUGAGAGCAUCUUAGGAUGUAGAGGCGGCAGCCUUCGGUGGCGCGAUAGCGUCAUGGUUCUCAACUAUGACACGCAAAACGCGUGCUCCGUUGAAUGGAGUUUAUCAUG [C38U C57A C63U C95U A98U C99G] | -1.54
GGAUCUUCUCGAUCUAACAAAAAAGACAAAUCUGCCAUAAAGCUUGAGAGCAUCUUCGGAUGCAGAGGCGGCAGCCUUCGGUGGCGCGAUAGGGCCAACGUUCUCAACUAUGACACGCAAAACGCGUGCUCCGUUGAAUGGAGUUUAUCAUG [C38U C93G] | -2.92
GGAUCUUCUCGAUCUAACAAAAAAGACAAAUCUGCCAUAAAGCUUGAGAGCAUCUUCGGAUGCAGAGGCGGCAGACUUCUGUGGCGCGAUAGCGCCAACGUUCUCAACUAUGACACGCAAAACGCGUGCUCCGUUGAAUGGAGUUUAUCAUG [C38U C75A G80U] | -4.14
GGAUCUUCUCGAUCUAACAAAAAAGACAAAUCUGCCAUAAAGCUUGAGAGCAUCUUCGGAUGCAGAGGCGGCAGCCUUCGGUGGCGUGAUAGCGCCAACGUUCUCAACUAUGACUCGCAAAACGUGUGCUCCGUUGAAUGGAGUUUAUCAUG [C38U C87U A115U C125U] | -3.34
GGAUCUUCUCGAUCUAACAAAAAAGACAAAUCUGCCAUAAAGCUUGAGAGCAUAUUCGGUUGCAGAGGCGGCAGCCUUCGGUGGCGCGAUAGCGCCAACGUUCUCAACUAUGACACGCAAAACGCGUGCUCCGUUGAAUGGAGUUUAUCAUG [C38U C54A A60U] | -0.76
GGAUCUUCUCGAUCUAACAAAAAAGACAAAUCUGCCAUAAAGCUUGAGAGCAUCUUCGGAUGCAGAGGGGGCAGCCUUCGGUGGCGCGAUAGCGUCAACGUUCUCAACUAUGACACGCAAACCGCGUGCUCCGUUGAAUGGAGUUUAUCAUG [C38U C69G C95U A122C] | -2.43
GGAUCUUCUCGAUCUAACAAAAAAGACAAAUCUGCCAUAAAGCUUGAGAGCAUCUUCGGAUGAAGAGGCGGCAGCCUUCGGUGGUGCGAUAGCGCCAACGUUCUCAACUAUGACACGCAAAACGCGUGCUCCGUUGAAUGGAGUUUAUCAUG [C38U C63A C85U] | 0.65

Variant | polymerase ribozyme fitness (log ratio)
GGAUCUUCUCGAUCUAACAAAAAAGACAAAUCUGCCAUAAAGCUUGAGAGCAUUUUAGGAUGCAGAGGCGGCAGCCUUCGGUGACGCGAUAGCGCCAACGUUCUCAACUAUGACACGUAAAACGCGUGCUCCGUUGAAUGGAGUUUAUCAUG [C38U C54U C57A G84A C118U] | -1.06
GGAUCUUCUCGAUCUAACAAAAAAGACAAAUCUGCCAUAAAGCUUGAGAGCAUCUUCGGAUGCAGAGGCGGCAGCUUUCGCUGGCGCGAUAGCGCCAACGUUCUCAACUAUGACACGCAAAACGCGUGCUCCGUUGAAUGGAGUUUAUCAUG [C38U C76U G81C] | -0.0752
GGAUCUUCUCGAUCUAACAAAAAAGACAAAUCUGCCAUAAAGCUUGAGAGCAUCUUCGGAUGUAGAGGCGGCGGCCUUCGGUGGCGUGAUAGCGCCAACGUUCUCAACUAUGACACGCAAAACGCGUGCUCCGUUGAAUGGAGUUUAUCAUG [C38U C63U A73G C87U] | -0.21
GGAUCUUCUCGAUCUAACAAAAAAGACAAAUCUGCCAUAAAGCUUGAGAGCAUCUUCGGAUGCAGAGGCGGCAGCCUUCGGUGGCGUGAUAGCGUCAACGUUCUCAACUAUGACACGCAAAACGCGUGCUCCGUUGAAUGGAGAUUAUCAUG [C38U C87U C95U U144A] | -1.21
GGAUCUUCUCGAUCUAACAAAAAAGACAAAUCUGCCAUAAAGCUUGAGAGCAUCUUCGGAUGCAGAGGCGGCAGCCUUCGGUGGCGCGAUAGCGCGAACGUUCUCAACUAUGACACGCAAAACGCGUGCUCCGUUGAAUGGUGUUAAUCAUG [C38U C96G A142U U146A] | -1.67
GGAUCUUCUCGAUCUAACAAAAAAGACAAAUCUGCCAUAAAGCUUGAGAGUAUCUACGGAUGCAGAGGCGGCAGCCUUCGGUGGCGCGAUAGCUCCAACGUUCUAAACUAUGACACGCAAUACGCGUGCUCCGUUGAAUGGAGUUUAUCAUG [C38U C51U U56A G94U C105A A121U] | -4.15
GGAUCUUCUCGAUCUAACAAAAAAGACAAAUCUGCCAUAAAGCUUGAGAGCAUCUUCGGAUGAAGAGGCGGCAGCCUUCGGUGGCGCGAUAGCCCCAACGUUCUCAACUAUGACACGCAAAACGCGUGCUCCGUUGAAUGGAGUUUAUCAUG [C38U C63A G94C] | -0.694
GGAUCUUCUCGAUCUAACAAAAAAGACAAAUCUGCCAUAAAGCUUGAGAGCAUCUUCGGAUGCAGAGGCGGUAGCCUUCGGUGGCGCGAUAGCGGCAACGUUCUCAACUAUGACACGCAAAACGCGUGCUCCGUUGAAUGGAGUUUAUCAUG [C38U C72U C95G] | -0.675
GGAUCUUCUCGAUCUAACAAAAAAGACAAAUCUGCCAUAAAGCUUGAGAGCAUCUUCGGAUGCAGAGGCGGCAGCCUUCGGUGGCGCGAUAGCGCGAACGUUCUCAACUAUGACACGCAAAACGCGUGCUCCGUUGAAUGGAGUUUAUCAUG [C38U C96G] | -1.09
GGAUCUUCUCGAUCUAACAAAAAAGACAAAUCUGCCAUAAAGCUUGAGAGCAUCUUCGGAUGCAGAGGCGGCAGCCUUCGGUGGCGCGAUAGCGACAACGUUCUCAAUUAUGACACGCAAAACGCGUGCUCUGUUGAAUGGAGUUUAUCAUG [C38U C95A C108U C132U] | -3.39
GGAUCUUCUCGAUCUAACAAAAAAGACAAAUCUGCCAUAAAGCUUGAGAGCAUCUUCGGAUGCAGAGGCGGCAGCCUUCGGUGGCGUGAUAGCGCCAACGUUCUCAACUAUGACACGCAAAACGCGUGCUCCGUUGAAUGGAGUUUAUCAUG [C38U C87U] | -1.19
GGAUCUUCUCGAUCUAACAAAAAAGACAAAUCUGCCAUAAAGCUUGAGAGCAUCUUCGGAUGCAGAGGCGGCAGCCUUCGGUGGCGGGAUAGCGCCAACGUUCUCAACUAUGACACGCAAAACGCGUGCUCCGUUGAAUGGAGUUUAUCAUG [C38U C87G] | -3.75
GGAUCUUCUCGAUCUAACAAAAAAGACAAAUCUGCCAUAAAGCUUGAGAGCAUCUUCGGAUGCAGAGGCGGCAGCCUUCGGUGGUGCGAUAGCGGCAACGUUCUAAACUAUGACACGCAAAACGCGUGCUCCGUUGAAUGGAGUUUAUCAUG [C38U C85U C95G C105A] | -3.93
GGAUCUUCUCGAUCUAACAAAAAAGACAAAUCUGCCAUAAAGCUUGAGAGCAUCUUCGGAUGCAGAGGCGGCAGCCUUCGGUGGCGCGAUAGAGCCAACGUUCUCAACUAUGACACGCCAAACGCGUGCUCCGUUGAAUGGUGUUUAUCAUG [C38U C93A A119C A142U] | -3.54
GGAUCUUCUCGAUCUAACAAAAAAGACAAAUCUGCCAUAAAGCUUGAGAGCAUCUUAGGAUGCAGAGGCGGCAGCCUUCGGUGGCGCGAUAGCGCCAACGUUCUCAACUAUGACACGCAAAACGCGUGCUCCGUUGAAUGGACUUUAUCAUG [C38U C57A G143C] | -2.41
GGAUCUUCUCGAUCUAACAAAAAAGACAAAUCUGCCAUAAAGCUUGAGAGCAUCUUGGGAUGCAGAGGCGGCAGCCUUCGGUGGCGCGUUAGCGCCAACCUUCUCAACUAUGACACGCAAAACGCGUGCUCCGUUGAAUGGAGUUUAUCAUG [C38U C57G A89U G100C] | ≤ -4.2
GGAUCUUCUCGAUCUAACAAAAAAGACAAAUCUGCCAUAAAGCUUGAGAGCAUCUUCGGAUGCAGAGGCGGCAGCCUUCGGUGGCGCGAUAGCGGCAACGUACUCAACUAUGACACGCAAAACGCGUGCUCCGUUGAAUGGAGUUUAUCAUG [C38U C95G U102A] | -2.51
GGAUCUUCUCGAUCUAACAAAAAAGACAAAUCUGCCAUAAAGCUUGAGAGCAUCUUCGGAUGCAGAGGCGGCAGCCUUCGGUGGCGCGAUAGUGCCAACGUUCUCAACUAUGACACGCAAGACACGUGCUCCGUGGAAUGGAGUUUAUCAUG [C38U C93U A121G G124A U135G] | ≤ -4.2
GGAUCUUCUCGAUCUAACAAAAAAGACAAAUCUGCCAUAAAGCUUGAGAGCAUCUUCGGAUGCAGAGGCGGCAGCCUUCGGUGGCGCGAUAGCGCCAACGUUCUCAACUAUGACACGCAACACGCGUGCUCCGUUCAUUGGAGUUUAGCAUG [C38U A121C G136C A138U U148G] | ≤ -4.2
